# Experimental data as given in patent publication US20190263932A1 (Eli Lilly, published 2019).
# B1: mAb B (antibody, human IgG4 S228P, kappa, F234A L235A)
# heavy: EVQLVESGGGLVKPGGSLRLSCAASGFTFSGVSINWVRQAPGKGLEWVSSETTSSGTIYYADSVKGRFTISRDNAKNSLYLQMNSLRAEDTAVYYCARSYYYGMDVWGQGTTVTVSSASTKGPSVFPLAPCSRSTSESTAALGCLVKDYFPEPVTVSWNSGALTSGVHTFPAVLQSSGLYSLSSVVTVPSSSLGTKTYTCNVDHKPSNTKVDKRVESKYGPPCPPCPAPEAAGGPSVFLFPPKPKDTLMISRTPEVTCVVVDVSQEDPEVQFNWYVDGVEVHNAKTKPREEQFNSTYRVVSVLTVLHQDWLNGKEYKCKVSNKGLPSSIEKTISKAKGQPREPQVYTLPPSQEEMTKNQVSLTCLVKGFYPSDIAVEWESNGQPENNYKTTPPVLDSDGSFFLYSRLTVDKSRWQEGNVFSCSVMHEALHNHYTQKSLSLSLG
# light: DIVMTQTPLSSPVTLGQPASISCRSSQSLVHRAGNTYLSWLQQRPGQPPRLLIYKISNRFSGVPDRFSGSGAGTDFTLKISRVEAEDVGVYYCMQARQFPLTFGGGTKVEIKRTVAAPSVFIFPPSDEQLKSGTASVVCLLNNFYPREAKVQWKVDNALQSGNSQESVTEQDSKDSTYSLSSTLTLSKADYEKHKVYACEVTHQGLSSPVTKSFNRGEC
# notes: Human IgG4PAA/Kappa
# Target: T1, Human TrkA Extracellular Domain Isoform 2 (33-408) (human, UniProt P04629 33-414)
# T1 construct: SPR analyte; also called Human TrkA Isoform 2
# Assay: SPR, mAb captured on Protein A chip, 37 C
# Experimental: Antibodies are captured onto a Series-S Sensor Protein A CM5 chip (GE Healthcare). For each channel, Flow Cell 1 (FC1) is designated as a buffer reference and Flow Cell 2 (FC2) is designated for antibody capture. All FC2 on all eight channels are set to capture approximately 89 response units (RU) of antibody at a flow rate of 10 μL/min. All antibody samples are prepared at 5 μg/mL by dilution into the running buffer. […] Before the analysis cycle, the chip is regenerated with 3 injections of glycine (pH ˜1.5) at 100 μL/min for a contact time of 15 seconds on FC1 and FC2 in order to clean the surface of the chip. […] This is repeated for each antibody evaluated. Data is processed using predefined antibody parallel kinetics with reference subtraction and fit to a 1:1 binding model using BIACORE™ 8K evaluation software (version 1.1.1.7442) to determine the association rate (on-rate, kon, M⁻¹s⁻¹ units) and the dissociation rate (off-rate, koff, s⁻¹ units). The equilibrium dissociation constant (KD) is calculated from the relationship KD=koff/kₒₙ, in molar units. The average (Avg) KD and error, reported as the standard deviation (SD), is determined from three independent experiments.
# T1 sequence (P04629 other isoform, or with tags, fused parts or gaps): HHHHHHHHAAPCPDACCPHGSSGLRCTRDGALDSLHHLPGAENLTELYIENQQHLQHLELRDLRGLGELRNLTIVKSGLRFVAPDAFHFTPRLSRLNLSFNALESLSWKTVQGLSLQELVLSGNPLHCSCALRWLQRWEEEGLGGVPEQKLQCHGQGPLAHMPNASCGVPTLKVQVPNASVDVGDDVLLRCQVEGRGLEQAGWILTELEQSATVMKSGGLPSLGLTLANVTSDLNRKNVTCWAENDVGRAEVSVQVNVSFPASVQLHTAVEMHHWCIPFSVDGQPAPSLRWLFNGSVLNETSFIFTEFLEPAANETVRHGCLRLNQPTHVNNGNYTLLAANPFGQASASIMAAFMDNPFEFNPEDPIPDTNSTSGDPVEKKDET
binder,measurement,value
B1,Kd,7.7 nM
same,koff,0.0012 s⁻¹
same,kon,160000 M⁻¹ s⁻¹
